According to article PMC6555819, “Comprehensive study of nuclear receptor DNA binding provides a revised framework for understanding receptor specificity”:
Residue numbers refer to the chain shown, from its start.

B1: NRC3_wobSeed41_DR1_T13C_o1 (dsDNA)
DNA 1: GCATATGTAGGTCAAGGGTCATTCAGGTTGGTTCGCGCGATTGACAGCGTAGAATGAAGG
DNA 2: CCTTCATTCTACGCTGTCAATCGCGCGAACCAACCTGAATGACCCTTGACCTACATATGC
B2: NRC3_wobSeed44_DR1_A18G_o1 (dsDNA)
DNA 1: GCTGAATGAGGTTAAAGGTCAGGGAACGTGGCGTCGGCGATTGACAGCGTAGAATGAAGG
DNA 2: CCTTCATTCTACGCTGTCAATCGCCGACGCCACGTTCCCTGACCTTTAACCTCATTCAGC
B3: NRC3_wobSeed38_DR1_T16A_o1 (dsDNA)
DNA 1: GCCCTGCTAGGTCAAAGGTCAGCTAAAGCAGCTCGCGCGATTGACAGCGTAGAATGAAGG
DNA 2: CCTTCATTCTACGCTGTCAATCGCGCGAGCTGCTTTAGCTGACCTTTGACCTAGCAGGGC
B4: NRC3_wobSeed73_DR3_C28T_o1 (dsDNA)
DNA 1: GCCAAACTAGGTCACAGAGGTCAAAGTTCGTGCGTAGCGATTGACAGCGTAGAATGAAGG
DNA 2: CCTTCATTCTACGCTGTCAATCGCTACGCACGAACTTTGACCTCTGTGACCTAGTTTGGC
B5: NRC3_wobSeed34_DR1_G14A_o1 (dsDNA)
DNA 1: GCATCGAAAGGTCAAAGGTGAGTATACCCACCCGAAGCGATTGACAGCGTAGAATGAAGG
DNA 2: CCTTCATTCTACGCTGTCAATCGCTTCGGGTGGGTATACTCACCTTTGACCTTTCGATGC
B6: NRC3_wobSeed46_DR1_G13C_o1 (dsDNA)
DNA 1: GCTTACCAAGGTCAAAGGTCGTTGATGCACGCCTTGGCGATTGACAGCGTAGAATGAAGG
DNA 2: CCTTCATTCTACGCTGTCAATCGCCAAGGCGTGCATCAACGACCTTTGACCTTGGTAAGC
B7: NRC3_wobSeed121_DR5_G18A_o1 (dsDNA)
DNA 1: GCCAAACTAGGTCACCGAAAGGTCAAAGTCCGCATGGCGATTGACAGCGTAGAATGAAGG
DNA 2: CCTTCATTCTACGCTGTCAATCGCCATGCGGACTTTGACCTTTCGGTGACCTAGTTTGGC
B8: NRC3_wobSeed39_DR1_A19T_o1 (dsDNA)
DNA 1: GCCGAACTAGGTCAAAGGTCAGTGAAAGGCGACGTAGCGATTGACAGCGTAGAATGAAGG
DNA 2: CCTTCATTCTACGCTGTCAATCGCTACGTCGCCTTTCACTGACCTTTGACCTAGTTCGGC
B9: NRC3_wobSeed45_DR1_A20T_o1 (dsDNA)
DNA 1: GCTGTCAAAGTTCAAAGGTTACGTAAGTATCCACACGCGATTGACAGCGTAGAATGAAGG
DNA 2: CCTTCATTCTACGCTGTCAATCGCGTGTGGATACTTACGTAACCTTTGAACTTTGACAGC
B10: NRC3_wobSeed49_DR2_C27T_o1 (dsDNA)
DNA 1: GCCAAACTAGGTCAAGAGGTCAAAGTTCGCTTCCCGGCGATTGACAGCGTAGAATGAAGG
DNA 2: CCTTCATTCTACGCTGTCAATCGCCGGGAAGCGAACTTTGACCTCTTGACCTAGTTTGGC
B11: NRC3_wobSeed41_DR1_G16A_o1 (dsDNA)
DNA 1: B1 DNA 1 with C13T, G16A
DNA 2: B1 DNA 2 with C45T, G48A
B12: NRC3_wobSeed26_DR1_T9C_o1 (dsDNA)
DNA 1: GCTCTAGTCGGTCAAAGGTCACACACTCGAAATGCGGCGATTGACAGCGTAGAATGAAGG
DNA 2: CCTTCATTCTACGCTGTCAATCGCCGCATTTCGAGTGTGTGACCTTTGACCGACTAGAGC
B13: NRC3_wobSeed45_DR1_T11G_o1 (dsDNA)
DNA 1: B9 DNA 1 with T11G, T20A
DNA 2: B9 DNA 2 with A41T, A50C
B14: NRC3_wobSeed89_DR3_T13C_o1 (dsDNA)
DNA 1: GCCTATGTAGGTCAAGGGGGTCATTCAGTTTGAAAGGCGATTGACAGCGTAGAATGAAGG
DNA 2: CCTTCATTCTACGCTGTCAATCGCCTTTCAAACTGAATGACCCCCTTGACCTACATAGGC
B15: NRC3_random_hg19_59_o1 (dsDNA)
DNA 1: GCCAGTTCAAGACCAGCCTGGCCAACATGGTGAAACGCGATTGACAGCGTAGAATGAAGG
DNA 2: CCTTCATTCTACGCTGTCAATCGCGTTTCACCATGTTGGCCAGGCTGGTCTTGAACTGGC

Key:
[1] = target: RXRa (Homo sapiens, UniProt P19793); test: no ligand; PBM; 180 nM; PBS pH 7.4, 2% milk, 0.02% Triton X-100, 1 mM DTT, BSA, 0.4 mg/ml salmon testes DNA; conditions: tags: His cleaved; chain copies: 2; label: surface-attached array probe
Chain of RXRa (P19793 whole entry): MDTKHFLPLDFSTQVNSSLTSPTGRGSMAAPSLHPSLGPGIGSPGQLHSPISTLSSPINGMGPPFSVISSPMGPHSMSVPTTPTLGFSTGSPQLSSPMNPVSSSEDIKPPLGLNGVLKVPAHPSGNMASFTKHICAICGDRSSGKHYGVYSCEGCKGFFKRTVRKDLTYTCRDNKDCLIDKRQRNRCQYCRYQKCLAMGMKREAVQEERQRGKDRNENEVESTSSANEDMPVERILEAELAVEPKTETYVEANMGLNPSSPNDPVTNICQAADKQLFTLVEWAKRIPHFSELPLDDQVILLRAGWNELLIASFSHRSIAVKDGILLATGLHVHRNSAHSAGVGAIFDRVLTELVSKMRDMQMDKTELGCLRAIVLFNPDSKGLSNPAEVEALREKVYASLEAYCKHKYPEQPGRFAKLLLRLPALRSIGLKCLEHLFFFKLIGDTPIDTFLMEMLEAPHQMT

[2] = target: PPARg:RXRa (Homo sapiens, UniProt P37231;P19793 full;full); test: no ligand; PBM; 180 nM : 90 nM RXRa; PBS pH 7.4, 2% milk, 0.02% Triton X-100, 1 mM DTT, BSA, 0.4 mg/ml salmon testes DNA; conditions: tags: His kept;His cleaved; copies: 1;1; label: surface-attached array probe
Chain of PPARg:RXRa (P37231 29-505, chain 1 of 2): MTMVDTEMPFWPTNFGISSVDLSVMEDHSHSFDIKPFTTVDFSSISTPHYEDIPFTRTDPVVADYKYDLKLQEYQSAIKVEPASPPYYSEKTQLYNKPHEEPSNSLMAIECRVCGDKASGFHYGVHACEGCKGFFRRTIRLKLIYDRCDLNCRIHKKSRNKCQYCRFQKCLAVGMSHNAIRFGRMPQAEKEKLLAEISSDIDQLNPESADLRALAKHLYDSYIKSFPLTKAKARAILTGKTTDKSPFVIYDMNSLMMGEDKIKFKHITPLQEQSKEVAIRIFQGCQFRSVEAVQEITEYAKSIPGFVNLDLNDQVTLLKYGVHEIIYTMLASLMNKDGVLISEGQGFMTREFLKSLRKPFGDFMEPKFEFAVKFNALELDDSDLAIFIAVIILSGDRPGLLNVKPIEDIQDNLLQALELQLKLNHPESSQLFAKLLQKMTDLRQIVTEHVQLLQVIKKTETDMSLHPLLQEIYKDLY
Chain of PPARg:RXRa (P19793 whole entry, chain 2 of 2): as the sequence (P19793 whole entry) above

[3] = target: VDR:RXRa (Homo sapiens, UniProt P11473;P19793 full;full); test: no ligand; PBM; 270 nM : 90 nM RXRa; PBS pH 7.4, 2% milk, 0.02% Triton X-100, 1 mM DTT, BSA, 0.4 mg/ml salmon testes DNA; conditions: tags: His kept;His cleaved; copies: 1;1; label: surface-attached array probe
Method in brief: (§1)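 Random background probes are the reference for binding z-scores. These scores derive from regression-normalized fluorescence on custom Agilent 4×180K protein-binding microarrays incubated 1 h with ligand-free nuclear receptor dimers. Binding was detected with antibodies against each partner (one per run).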

[4] = target: PPARa:RXRa (Homo sapiens, UniProt Q07869;P19793 full;full); test: as above; conditions: tags: GST kept;His cleaved; copies: 1;1; label: surface-attached array probe
Method in brief: as §1

[5] = target: LXRb:RXRa (Homo sapiens, UniProt P55055;P19793 full;full); test: as above; conditions: tags: His kept;His cleaved; copies: 1;1; label: surface-attached array probe
Method in brief: as §1

[6] = target: PXR:RXRa (Homo sapiens, UniProt O75469;P19793 full;full); test: as above; conditions: tags: His kept;His cleaved; copies: 1;1; label: surface-attached array probe
Chain of PXR:RXRa (O75469 whole entry, chain 1 of 2): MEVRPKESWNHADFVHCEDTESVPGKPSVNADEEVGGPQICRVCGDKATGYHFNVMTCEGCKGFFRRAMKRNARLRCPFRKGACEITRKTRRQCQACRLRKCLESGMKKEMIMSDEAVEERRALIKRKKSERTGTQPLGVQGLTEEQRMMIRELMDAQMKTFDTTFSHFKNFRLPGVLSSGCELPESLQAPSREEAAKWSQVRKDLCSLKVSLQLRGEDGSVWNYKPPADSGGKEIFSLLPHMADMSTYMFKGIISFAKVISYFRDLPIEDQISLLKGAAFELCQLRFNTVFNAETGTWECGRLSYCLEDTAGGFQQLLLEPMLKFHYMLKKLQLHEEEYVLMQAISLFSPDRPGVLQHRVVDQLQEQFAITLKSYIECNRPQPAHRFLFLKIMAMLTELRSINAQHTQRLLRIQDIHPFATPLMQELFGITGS
Chain of PXR:RXRa (P19793 whole entry, chain 2 of 2): as the sequence (P19793 whole entry) above
Method in brief: as §1

[7] = target: RARa:RXRa (Homo sapiens, UniProt P10276;P19793 full;full); test: as above; conditions: tags: His kept;His cleaved; copies: 1;1; label: surface-attached array probe
Method in brief: as §1

[8] = target: RARb:RXRa (Homo sapiens, UniProt P10826;P19793 full;full); test: as above; conditions: tags: His kept;His cleaved; copies: 1;1; label: surface-attached array probe
Method in brief: as §1

[9] = target: RARg:RXRa (Homo sapiens, UniProt P13631;P19793 full;full); test: as above; conditions: tags: His kept;His cleaved; copies: 1;1; label: surface-attached array probe
Method in brief: as §1

[10] = target: LXRa:RXRa (Homo sapiens, UniProt Q13133;P19793 full;full); test: as above; conditions: tags: His kept;His cleaved; copies: 1;1; label: surface-attached array probe
Chain of LXRa:RXRa (Q13133 whole entry, chain 1 of 2): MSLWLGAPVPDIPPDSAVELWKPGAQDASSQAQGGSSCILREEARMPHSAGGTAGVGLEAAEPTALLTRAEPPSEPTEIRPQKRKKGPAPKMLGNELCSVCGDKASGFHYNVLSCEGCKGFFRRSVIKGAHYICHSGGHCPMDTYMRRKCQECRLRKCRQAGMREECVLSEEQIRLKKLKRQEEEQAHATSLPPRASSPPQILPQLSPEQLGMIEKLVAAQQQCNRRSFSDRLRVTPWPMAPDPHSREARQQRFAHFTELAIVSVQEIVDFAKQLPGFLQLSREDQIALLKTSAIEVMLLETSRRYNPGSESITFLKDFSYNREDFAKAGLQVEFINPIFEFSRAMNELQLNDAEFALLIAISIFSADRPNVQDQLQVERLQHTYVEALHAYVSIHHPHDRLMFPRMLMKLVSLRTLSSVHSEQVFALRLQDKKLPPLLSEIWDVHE
Chain of LXRa:RXRa (P19793 whole entry, chain 2 of 2): as the sequence (P19793 whole entry) above
Method in brief: as §1

[11] = target: FXR:RXRa (Homo sapiens, UniProt Q96RI1;P19793 full;full); test: as above; conditions: tags: His kept;His cleaved; copies: 1;1; label: surface-attached array probe
Chain of FXR:RXRa (Q96RI1 whole entry, chain 1 of 2): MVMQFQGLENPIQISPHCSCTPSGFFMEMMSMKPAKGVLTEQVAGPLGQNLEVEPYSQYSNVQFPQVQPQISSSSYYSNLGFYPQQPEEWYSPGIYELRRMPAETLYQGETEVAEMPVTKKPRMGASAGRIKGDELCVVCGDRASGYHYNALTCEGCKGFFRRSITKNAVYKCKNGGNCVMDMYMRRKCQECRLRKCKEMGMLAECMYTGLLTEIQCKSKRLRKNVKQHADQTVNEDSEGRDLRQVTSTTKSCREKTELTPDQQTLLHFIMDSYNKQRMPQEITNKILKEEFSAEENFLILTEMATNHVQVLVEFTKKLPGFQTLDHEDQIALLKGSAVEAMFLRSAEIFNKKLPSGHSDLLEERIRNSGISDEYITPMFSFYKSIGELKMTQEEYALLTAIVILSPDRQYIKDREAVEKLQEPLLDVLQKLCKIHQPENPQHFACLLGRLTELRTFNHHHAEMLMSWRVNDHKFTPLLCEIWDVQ
Chain of FXR:RXRa (P19793 whole entry, chain 2 of 2): as the sequence (P19793 whole entry) above
Method in brief: as §1

Binder | binding signal [1] | binding signal [2] | binding signal [3] | binding signal [4] | binding signal [5] | binding signal [6] | binding signal [7] | binding signal [8] | binding signal [9] | binding signal [10] | binding signal [11]
B1 | 9.04 PBM z-score against 500 random probes | 13.1 PBM z-score against 500 random probes | 6.57 PBM z-score against 500 random probes | 7.55 PBM z-score against 500 random probes | 6.03 PBM z-score against 500 random probes | 6.6 PBM z-score against 500 random probes | 7.96 PBM z-score against 500 random probes |  |  |  | 
B2 | 9.53 PBM z-score against 500 random probes | 11.9 PBM z-score against 500 random probes |  | 6.96 PBM z-score against 500 random probes |  | 6.68 PBM z-score against 500 random probes | 9.15 PBM z-score against 500 random probes |  |  |  | 
B3 | 10 PBM z-score against 500 random probes | 12.7 PBM z-score against 500 random probes |  | 6.82 PBM z-score against 500 random probes | 5.81 PBM z-score against 500 random probes | 6.86 PBM z-score against 500 random probes | 8.86 PBM z-score against 500 random probes | 5.62 PBM z-score against 500 random probes | 8.54 PBM z-score against 500 random probes |  | 
B4 | 8.65 PBM z-score against 500 random probes | 10.8 PBM z-score against 500 random probes |  |  |  | 7.41 PBM z-score against 500 random probes | 8.8 PBM z-score against 500 random probes |  |  |  | 
B5 | 10.1 PBM z-score against 500 random probes | 10 PBM z-score against 500 random probes |  | 7.53 PBM z-score against 500 random probes | 6.85 PBM z-score against 500 random probes | 6.57 PBM z-score against 500 random probes | 8.66 PBM z-score against 500 random probes | 6.19 PBM z-score against 500 random probes | 8.43 PBM z-score against 500 random probes | 7.65 PBM z-score against 500 random probes | 8.87 PBM z-score against 500 random probes
B6 | 9.65 PBM z-score against 500 random probes | 10.5 PBM z-score against 500 random probes |  | 6.85 PBM z-score against 500 random probes | 6.04 PBM z-score against 500 random probes | 7 PBM z-score against 500 random probes | 8.61 PBM z-score against 500 random probes | 5.44 PBM z-score against 500 random probes | 7.78 PBM z-score against 500 random probes | 7.04 PBM z-score against 500 random probes | 8.17 PBM z-score against 500 random probes
B7 |  | 10.5 PBM z-score against 500 random probes |  | 6.77 PBM z-score against 500 random probes | 6.47 PBM z-score against 500 random probes | 6.93 PBM z-score against 500 random probes | 8.55 PBM z-score against 500 random probes | 5.67 PBM z-score against 500 random probes |  | 6.91 PBM z-score against 500 random probes | 
B8 | 9.27 PBM z-score against 500 random probes | 14 PBM z-score against 500 random probes |  | 7.58 PBM z-score against 500 random probes |  | 6.52 PBM z-score against 500 random probes | 8.51 PBM z-score against 500 random probes | 5.46 PBM z-score against 500 random probes | 8.09 PBM z-score against 500 random probes |  | 
B9 | 9.74 PBM z-score against 500 random probes | 9.98 PBM z-score against 500 random probes |  | 6.95 PBM z-score against 500 random probes | 5.93 PBM z-score against 500 random probes | 6.87 PBM z-score against 500 random probes | 8.47 PBM z-score against 500 random probes | 5.55 PBM z-score against 500 random probes | 7.83 PBM z-score against 500 random probes | 7.17 PBM z-score against 500 random probes | 
B10 |  | 11 PBM z-score against 500 random probes | 6.55 PBM z-score against 500 random probes | 6.92 PBM z-score against 500 random probes |  | 6.88 PBM z-score against 500 random probes | 8.47 PBM z-score against 500 random probes |  |  |  | 7.82 PBM z-score against 500 random probes
B11 | 9.21 PBM z-score against 500 random probes | 13.4 PBM z-score against 500 random probes | 6.82 PBM z-score against 500 random probes | 7.09 PBM z-score against 500 random probes | 5.91 PBM z-score against 500 random probes | 6.71 PBM z-score against 500 random probes | 8.42 PBM z-score against 500 random probes |  |  |  | 
B12 | 8.95 PBM z-score against 500 random probes | 12.4 PBM z-score against 500 random probes |  | 6.91 PBM z-score against 500 random probes |  |  | 8.22 PBM z-score against 500 random probes |  | 8.36 PBM z-score against 500 random probes | 6.67 PBM z-score against 500 random probes | 
B13 | 10.1 PBM z-score against 500 random probes | 12.1 PBM z-score against 500 random probes |  | 7.31 PBM z-score against 500 random probes | 6.94 PBM z-score against 500 random probes | 6.66 PBM z-score against 500 random probes | 8.2 PBM z-score against 500 random probes | 6.49 PBM z-score against 500 random probes | 8.53 PBM z-score against 500 random probes | 7.81 PBM z-score against 500 random probes | 9.11 PBM z-score against 500 random probes
B14 |  | 11.1 PBM z-score against 500 random probes | 8.32 PBM z-score against 500 random probes | 6.84 PBM z-score against 500 random probes | 6.92 PBM z-score against 500 random probes | 6.79 PBM z-score against 500 random probes | 7.29 PBM z-score against 500 random probes |  |  |  | 
B15 |  | 0.03 PBM z-score against 500 random probes |  |  |  |  | -0 PBM z-score against 500 random probes |  |  | 0.49 PBM z-score against 500 random probes | 
